Source: the nanobody polyreactivity screen of Harvey et al. (2022)

Experiment: yeast display, Sf9 membrane polyspecificity reagent, FACS + sequencing; frameworks hold sequencing errors
Summary of the method: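 A synthetic nanobody library was expressed on Saccharomyces cerevisiae BJ5465 by galactose induction for 36–48 hours. The library was stained for 1 hour at 4 °C with 10% biotinylated, detergent-solubilized Sf9 membrane reagent and enriched with streptavidin microbeads before FACS. Low and high (top ~1%) gates were set on anti-HA fluorescence for expression and streptavidin fluorescence for reagent binding, and each polyreactivity label reflects the gate of origin.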

Sequence | polyreactivity (PSR sort gate)
QVQLVESGGGLVQAGGSLRLSCAASGSTFQRNAMGWYRQAPGKERELVAAITSRGGSTYYADSVKGRFTISRDNAKNTVSLQMNSLNPEDTGVYYCAALTWARSRNGTYDYWGPGTQVTVSS | high polyreactivity
QVQLVESGGGLVQAGGSLRLSCAASGSTFQRYAMGWYRQAPGKERELVAAITWSGGSTKYADSVKGRFTISRDNAKNTVYLQMNSLKPEDTAVYYCAATPGRGGGYNYWGQGTQVTVSS | low polyreactivity
QVQLVESGGGLVQAGGSLRLSCAASGSTFQSYAMGWYRQAPGKERELVAAISTSDTDRTYYADSVKGRFTISRDNAKNTVYLQMNSLKPEDTAVYYCNADGYSHGDWYGYWGQGTQVTVSS | low polyreactivity
QVQLVESGGGLVQAGGSLRLSCAASGSTFQTYAMGWYRQAPGKERELVAAITSGGSTNYADSVKGRFTISRDNAKNTVYLQMNSLKPEDTAVYYCAVRQIYQTSDHRLQYDYWGQGTQVTVSS | low polyreactivity
QVQLVESGGGLVQAGGSLRLSCAASGSTFQTYAMGWYRQPPGKERELVAALNWRSGSTYYADSVKGRFTISRDNATNTVYLLMTSVKPEDTAVYDCARRSTGYTFDVSSMDYWGQGTQVTLSS | low polyreactivity
QVQLVESGGGLVQAGGSLRLSCAASGSTFQWNTMGWYRQAPGKERELVARITGGGGSTYYADSVKGRFTISRDNAKNTVYLQMNSLKPEDTAVYYCNAAIFGRYEYWGQGTQVTVSS | low polyreactivity
QVQLVESGGGLVQAGGSLRLSCAASGSTFQWYTMGWYRQAPGKERECVAAISRSGGRTYYADSVKGRFTISRDNAKNTVYLQMNSLKPVDTAVYYCAKYYYLYWSSQRDYWGQGTQVTVSS | high polyreactivity
QVQLVESGGGLVQAGGSLRLSCAASGSTFQWYVMGWYRQAPGKERELVAAITWSGGSTYYADSVKGRFTISRDNAKNTVYLQMNSLKPEDTAVYYCNAVFWIWNAGYDYWGQGTQVTVSS | low polyreactivity
QVQLVESGGGLVQAGGSLRLSCAASGSTFQYNAMGWYRQAPGKERELVAVISGSGSRTYYADSVKGRFTISRDNSKNTVYLQMNSLKPEDTAVYYCAKQRGGQPRSSTYYYWGQGTQVTVSS | high polyreactivity
QVQLVESGGGLVQAGGSLRLSCAASGSTFQYNAMVGYIQAPGKERELVAAISRGSSTKYADSVKGRFTISRDNAKNTVYLQMNSLKPEDTAVYYCAVDTRPSHRTRAYYYWGQGTQVTVSS | high polyreactivity
QVQLVESGGGLVQAGGSLRLSCAASGSTFQYNDMGWYRQAPGKERELVAAISSSGGSTSYADSVKGRFTISRDNAKNTVYLQMNSLKPEDTAVYYCAASYPGYHLYRDDYWGQGTQVTVSS | low polyreactivity
QVQLVESGGGLVQAGGSLRLSCAASGSTFRAYAMGWYRQAPGKERELVAAISKRGGSTYYADSVKGRFTISRDNAKYTVYLQMNSLKPEDTAVYYCNAATRSPFDYWGQGTQVTVSS | high polyreactivity
QVQLVESGGGLVQAGGSLRLSCAASGSTFRFNAMGWYRQAPGKEREFVAAIRFTGGSTYYADSVKGRFTISRDNAKNTVYLQMNSLKPEDSAVYYCNNADEYSTVEYDYWGQGTQVTVSS | low polyreactivity
QVQLVESGGGLVQAGGSLRLSCAASGSTFRFNAMGWYRQAPGKEREFVAAISTSGGSTYYADSVKGRFTISRDNAKNTVYLQMNSLKPEDTAVYYCATRRRIRSSFYYDNDYWGQGTQVTVSS | high polyreactivity
QVQLVESGGGLVQAGGSLRLSCAASGSTFRFYAMGWYRQAPGKERELVAAISSGGSSTYYADSVKGRFTISRDNAKNTVYLQMNSLKPEDTAVYYCAADSYVVRWRERDYWGQGTQVTVSS | low polyreactivity
QVQLVESGGGLVQAGGSLRLSCAASGSTFRFYAMGWYRQAPGKERELVAAITGSGGRTYYADSVKGRFTISRDNAKNTVYLQMNSLKPEDTAVYYCSARAYWLTGLTFSYKYNYWGQGTQVTVSS | high polyreactivity
QVQLVESGGGLVQAGGSLRLSCAASGSTFRFYAMGWYRQAPGKERELVAAITWRGGRTYYADSVKGRFTISRDNAKNTVYLQMNRLKPEDTAVYYCAGGRGWQSQIPAKYYYWGQGTQVTVSS | high polyreactivity
QVQLVESGGGLVQAGGSLRLSCAASGSTFRGYAMGCYRQAPGKEREFVASISLSGGTDYADSVKGRFTISRDNAKNTVYLQMNSLKPEDTADYYCAAGYPAVSDSIEHNFWGQGTQVTVSS | low polyreactivity
QVQLVESGGGLVQAGGSLRLSCAASGSTFRGYAMGWYRQAPGKERELVAAISRSGGSTYYADSVKGRFTSSRDNAKNTVYLQMNSLKPEDTGVYYCAKRTSGYYWQWFDYCGQGTQVTVSS | high polyreactivity
QVQLVESGGGLVQAGGSLRLSCAASGSTFRGYAMGWYRQAPGKERELVAAITGSGDRTRYADSVKGRFTISRDNAKNTVYLQMNSLKPEDTAVYYCAKVWPHWAYYSWGQGTQVTVSS | high polyreactivity
QVQLVESGGGLVQAGGSLRLSCAASGSTFRGYAMGWYRQEPGKEREFVASISLSGGSTYYADSVKGRFTISRDNAKYTVYLQMNSLKPEDSAVYYCAARARGYGWRGDYWRQGTQVTVSS | low polyreactivity
QVQLVESGGGLVQAGGSLRLSCAASGSTFRGYVMGWYRQAPGKERELVAAISRGGGSTYYADSVKGRFTISRDNAKNTVYLQMNSLKPEDTAVYYCATDYSGRQPGKYGYWGQGTQVTVSS | high polyreactivity

Sequence | polyreactivity (PSR sort gate)
QVQLVESGGGLVQAGGSLRLSCAASGSTFRGYVMGWYRQAPGKERELVAVISYNGGSTYYADSVKGRFTISRDNAKNTVYLQMNSLKPEDTAVYYCAATYFFLYTSWDEYWGQGTQVTVSS | low polyreactivity
QVQLVESGGGLVQAGGSLRLSCAASGSTFRHYAMGWYRQAPGKERELVAAISYSGSRTYYADSVKGRFTISRDNAKNTVYLQMNSLKPEDTAVYYCNVNLQGRYSDKYDYWGQGTQVTVSS | high polyreactivity
QVQLVESGGGLVQAGGSLRLSCAASGSTFRINAMGWYRQAPGKERELVAAITRGGSTNYADSVKGRFTISRDNAKNTVYLQMNSLKPEDTAVYYCAAGLYSWSGYASYNSAYGYWGQGTQVTVSS | low polyreactivity
QVQLVESGGGLVQAGGSLRLSCAASGSTFRIYAMGWYRQAPGKERELVARISWNGGRTYYADSVKGRFTISRDNAKNTVYLQMNSLKPEDTAVYYCNARSQGWYYFPDNDYWGQGTQVTVSS | high polyreactivity
QVQLVESGGGLVQAGGSLRLSCAASGSTFRKYAMGWYRQAPGKEREFVAAITWSTGTTYYADSVKGRFTISRDNAKNTVYLQMNSLKPEDTAVYYCAADSQPPHELYESIEHESWGQGTQVTVSS | low polyreactivity
QVQLVESGGGLVQAGGSLRLSCAASGSTFRKYGMGWYRQAPGKERELVARITSSTGTTYYADSVKGRFTISRDNAKNTVYLQMNSLKPEDTAVNYCNARVRYREWGLYYYWGQGTQVTVSS | high polyreactivity
QVQLVESGGGLVQAGGSLRLSCAASGSTFRLNARGWYRQAPGKERELVASIRWSVGITYYADSVKGRFTISRDNAKNTVYLQMNSLKPEDTAVYYCATRDTTWRYYYWGQGTQVTVSS | high polyreactivity
QVQLVESGGGLVQAGGSLRLSCAASGSTFRLYAMGWYRQAPGKERELVAAISSGGTTKYADSVKGRFTISRDNAKNTVYLQMNSLKPEDTAVYYCNRRARSYADDYWGQGTQVTVSS | high polyreactivity
QVQLVESGGGLVQAGGSLRLSCAASGSTFRLYAMGWYRQAPGKERELVASITTGGSTYYADSVKGRFTISRDNAKNTVYLQMNSLKPEDTAVYYCAAEEYWEMDYWGQGTQVTVSS | low polyreactivity
QVQLVESGGGLVQAGGSLRLSCAASGSTFRNYAMGWYRQAPGKERELVAAITKRGGTTYYADSVKGRFTISRDNAKNTVYLQMNSLKPEDTAVYYCAARVKGQWNTYDYWGQVTQVTVSS | high polyreactivity
QVQLVESGGGLVQAGGSLRLSCAASGSTFRPNAMGWYRQAPGKERELVAAITSGGSTYYADSVKGRFTISRDNAKNTVYLQMNSLKPEDTAVYYCNKDKFWSYPVQVNLDYWGQGTQVTVSS | low polyreactivity
QVQLVESGGGLVQAGGSLRLSCAASGSTFRPYAMGWDRQAPGKERELVAAITSTGGSTYYADSVKGRFTISRDNAKNTVYLQMNSLKPEDTAVYYCAAPLVRYAGPYDYWGQGTQVTVSS | low polyreactivity
QVQLVESGGGLVQAGGSLRLSCAASGSTFRPYVMGWSRQAPGKERELVAAISWRGGTTYYADSVKGRFTISRDNAKNTVYLQMNSQKPEDPAVYYCAARGDQGVPVARRYDYWGQGTQVTVSS | high polyreactivity
QVQLVESGGGLVQAGGSLRLSCAASGSTFRPYVMGWYRQAPGKERELVAAISWRGGTTYYADSVKGRFTISRDNAKNTVYLQMNSLKPEDTAVYYCAARGDQGVPVARRYDYWGQGTQVTVSS | high polyreactivity
QVQLVESGGGLVQAGGSLRLSCAASGSTFRQNAMGWYRQAPRKERELVATIRTSGGTTYYADSVKGRFTISRDTAKNTVYLQMNSLKPVDTAVYYCAAVSYLFLYQGYPIAYPMYYWGQGTQVTVSS | low polyreactivity
QVQLVESGGGLVQAGGSLRLSCAASGSTFRQYAMGWYRQAPGKERELVAAISSSGSTTYYADSVKGRFTISRDNAKNTVYLQMNSLKPEDTAVYYCAAEYTFHYDYWGQGTQVTVSS | low polyreactivity
QVQLVESGGGLVQAGGSLRLSCAASGSTFRQYAMGWYRQAPGKERELVAGISYRGGRTYYADSVKGRFTISRDNAKNTVYLHMNSLKPEDTAVYYCNALRHYRDISVDGDDYWGQGTQVTVSS | high polyreactivity
QVQLVESGGGLVQAGGSLRLSCAASGSTFRRNAMGWYRQAPGKERELVAAIRYSGSSTYYADSVKGRFTISRGNAKNTVYLQMNSLKPEDTAVYYCATVRNNRYKYDYWGQGTQVTVSS | high polyreactivity
QVQLVESGGGLVQAGGSLRLSCAASGSTFRRNAMGWYRQAPGKERELVAAISRSGDSTYYADSVKGRFTISRDYAKNTVYLQMNSLKPEDNAVYYCIAHQSRQVGYWGQGTQVTVSS | high polyreactivity
QVQLVESGGGLVQAGGSLRLSCAASGSTFRRNAMGWYRQAPGKERELVAAISSSGGSTYYADSVKGRFTISRDNAKNTVFLQMNSLKPEDTAVYYCAAGYPTLRGYYYWGQGTQVTVSS | low polyreactivity
QVQLVESGGGLVQAGGSLRLSCAASGSTFRRNAMGWYRQPPGKERELVAAISGSGSTYYADSVKGRFTISRDHAKNTVYLQLNSLKPEDTAVYYCAKDVTDPTSRSDRSGDDYWGQGTQVTVSS | low polyreactivity
